# Measured values from patent US11278600B2, “Human alpha-galactosidase variants” (Codexis, Inc., priority 2014, dated 2022).
# Changes are numbered by the printed parent chain.
# B1: 346 (protein)
# chain: LDNGLARTPTMGWLHWERFMCNLDCQEEPDSCISEKLFMEMAERMVSEGWKDAGYEYLCIDDCWMAPQRDSEGRLQADPQRFPHGIRQLANYVHSIGLKLGIYADVGNKTCAGFPGSFGYYDIDAQTFADWGVDLLKFDGCYCDSLENLADGYKHMSLALNRTGRSIVYSCEWPLYMWPFQKPNYTEIRQYCNHWRNFADIDDSWASIKSILDWTSRNQERIVDVAGPGGWNDPDMLVIGNFGLSWNQQVTQMALWAIMAAPLFMSNDLRHISPQAKALLQDKDVIAINQDPLGKQGYQLRKGDNFEVWERPLSGLAWAVAIINRQEIGGPRSYTIAVASLGKGVACNPGCFITQLLPVKRQLGFYNWSSRLKSHINPTGTVLLQLENTMQMSLKDLL
# modifications: Synthetic Polypeptide sequence of Variant No. 346 of mature Human GLA
# B2: 356 (protein)
# chain: B1 chain with I96K, L100F, R217F, R221T, N247D, G350A, Q362K, S369T
# modifications: Synthetic Polypeptide sequence of Variant No. 356 of mature Human GLA
# B3: 358 (protein)
# chain: B1 chain with I96K, L100F, R217F, R221T, N247D, G350A, Q362K, S369T
# modifications: Synthetic Polypeptide sequence of Variant No. 358 of mature Human GLA
# B4: 351 (protein)
# chain: B1 chain with I96K, L100F, I208V, R217F, R221T, G350A, Q362K, S369T, I376V
# modifications: Synthetic Polypeptide sequence of Variant No. 351 of mature Human GLA
# B5: 353 (protein)
# chain: B1 chain with I96K, L100F, R217F, R221T, K302Q, G350A, Q362K, F365L, S369T, I376V
# modifications: Synthetic Polypeptide sequence of Variant No. 353 of mature Human GLA
# B6: 354 (protein)
# chain: B1 chain with I96K, L100F, R217F, R221T, K302Q, G350A, Q362K, F365L, S369T
# modifications: Synthetic Polypeptide sequence of Variant No. 354 of mature Human GLA
# B7: 347 (protein)
# chain: B1 chain with R217F, K302Q, A337P, G350A, Q362K
# modifications: Synthetic Polypeptide sequence of Variant No. 347 of mature Human GLA
# B8: 357 (protein)
# chain: B1 chain with I96K, L100F, R217F, R221T, N247D, I322V, G350A, Q362K, S369T, I376V
# modifications: Synthetic Polypeptide sequence of Variant No. 357 of mature Human GLA
# B9: 352 (protein)
# chain: B1 chain with I96K, L100F, R217F, R221K, G350A, Q362K, S369T, I376V
# modifications: Synthetic Polypeptide sequence of Variant No. 352 of mature Human GLA
# B10: 348 (protein)
# chain: LDNGLARTPTMGWLHWERFMCNLDCQEEPDSCISEKLFMEMAERMVSEGWKDAGYEYLCIDDCWMAPQRDSEGRLQADPQRFPHGIRQLANYVHSKGLKFGIYADVGNKTCAGFPGSFGYYDIDAQTFADWGVDLLKFDGCYCDSLENLADGYKHMSLALNRTGRSIVYSCEWPLYMWPFQKPNYTEIRQYCNHWRNFADIDDSWASVKSILDWTSFNQEKIVDVAGPGGWNDPDMLVIGNFGLSWNQQVTQMALWAIMAAPLFMSNDLRHISPQAKALLQDKDVIAINQDPLGKQGYQLRQGDNFEVWERPLSGLAWAVAIINRQEIGGPRSYTIAVASLGGGVACNPACFITQLLPVKRKLGLYNWTSRLKSHINPTGTVLLQLENTMQMSLKDLL
# modifications: Synthetic Polypeptide sequence of Variant No. 348 of mature Human GLA
# B11: 355 (protein)
# chain: B10 chain with V208I, K221T, N247D, G343D, L365F, I376V
# modifications: Synthetic Polypeptide sequence of Variant No. 355 of mature Human GLA
# B12: 349 (protein)
# chain: B10 chain with K221T, N247D, G343K
# modifications: Synthetic Polypeptide sequence of Variant No. 349 of mature Human GLA
# B13: 350 (protein)
# chain: B10 chain with K221T, N247D, I322V, G343K, L365F, I376V
# modifications: Synthetic Polypeptide sequence of Variant No. 350 of mature Human GLA
# Assay: HTP-analysis of supernatants pretreated with base (MUGal hydrolysis)
# Type: biochemical
# Conditions: challenge at pH 8.2; activity of the variant/activity of Rd3BB (SEQ ID NO: 13); yeast culture supernatant
# Outline: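 Fluorescence of released 4-MU (Ex 355 nm, Em 448 nm) after carbonate quench reports MUGal hydrolysis by GLA variants secreted from INVSc1 yeast. Before the acidic (pH 4.3-4.8) 30-180 min reaction at 37° C, supernatants had been pre-incubated at pH 7.0-9.7 for 1-18 h at 37° C.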
row,Molecule,Relative Activity of GLA Variants After Challenge at pH 8.2
1,B1,++ (++ = >1.5 to 2.5 relative activity over Rd3BB (SEQ ID NO: 13))
2,B2,++ (++ = >1.5 to 2.5 relative activity over Rd3BB (SEQ ID NO: 13))
3,B3,++ (++ = >1.5 to 2.5 relative activity over Rd3BB (SEQ ID NO: 13))
4,B4,++ (++ = >1.5 to 2.5 relative activity over Rd3BB (SEQ ID NO: 13))
5,B5,− (− = <0.5 relative activity to Rd3BB (SEQ ID NO: 13))
6,B6,+ (+ = 0.5 to 1.5 relative activity over Rd3BB (SEQ ID NO: 13))
7,B7,− (− = <0.5 relative activity to Rd3BB (SEQ ID NO: 13))
8,B8,+++ (+++ = >2.5 relative activity over Rd3BB (SEQ ID NO: 13))
9,B9,+ (+ = 0.5 to 1.5 relative activity over Rd3BB (SEQ ID NO: 13))
10,B10,+ (+ = 0.5 to 1.5 relative activity over Rd3BB (SEQ ID NO: 13))
11,B11,++ (++ = >1.5 to 2.5 relative activity over Rd3BB (SEQ ID NO: 13))
12,B12,++ (++ = >1.5 to 2.5 relative activity over Rd3BB (SEQ ID NO: 13))
13,B13,+++ (+++ = >2.5 relative activity over Rd3BB (SEQ ID NO: 13))

# Assay: HTP-analysis of supernatants pretreated with bovine serum (MUGal hydrolysis)
# Type: biochemical
# Conditions: activity of the variant/activity of Rd3BB (SEQ ID NO: 13), yeast culture supernatant
# Outline: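 Yeast INVSc1 culture supernatants containing secreted GLA variants were mixed with bovine serum (20:80) and held 1 h at 37° C. Serum-treated samples then reacted with MUGal (4 mM stock) in citrate/McIlvaine buffer (pH 4.3/4.8) for 180 min at 37° C., were quenched with sodium carbonate, and read by fluorescence (Ex 355, Em 448 nm).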
row,Molecule,Relative Activity of GLA Variants After Challenge with Serum
1,B1,+ (+ = 0.5 to 1.5 relative activity over Rd3BB (SEQ ID NO: 13))
2,B2,+ (+ = 0.5 to 1.5 relative activity over Rd3BB (SEQ ID NO: 13))
3,B3,+ (+ = 0.5 to 1.5 relative activity over Rd3BB (SEQ ID NO: 13))
4,B4,+ (+ = 0.5 to 1.5 relative activity over Rd3BB (SEQ ID NO: 13))
5,B5,+ (+ = 0.5 to 1.5 relative activity over Rd3BB (SEQ ID NO: 13))
6,B6,+ (+ = 0.5 to 1.5 relative activity over Rd3BB (SEQ ID NO: 13))
7,B7,− (− = <0.5 relative activity to Rd3BB (SEQ ID NO: 13))
8,B8,+ (+ = 0.5 to 1.5 relative activity over Rd3BB (SEQ ID NO: 13))
9,B9,+ (+ = 0.5 to 1.5 relative activity over Rd3BB (SEQ ID NO: 13))
10,B10,+ (+ = 0.5 to 1.5 relative activity over Rd3BB (SEQ ID NO: 13))
11,B11,+ (+ = 0.5 to 1.5 relative activity over Rd3BB (SEQ ID NO: 13))
12,B12,+ (+ = 0.5 to 1.5 relative activity over Rd3BB (SEQ ID NO: 13))
13,B13,+ (+ = 0.5 to 1.5 relative activity over Rd3BB (SEQ ID NO: 13))

# Assay: HTP-analysis of yeast culture supernatants, no challenge (MUGal hydrolysis)
# Type: biochemical
# Conditions: activity of the variant/activity of Rd3BB (SEQ ID NO: 13), yeast culture supernatant
# Outline: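 Activity read as 4-methylumbelliferyl α-D-galactopyranoside hydrolysis: fluorescence (355/448 nm) after sodium carbonate stop, following 30-180 min at 37° C with 2 mM MUGal stock at pH 4.6–4.8. Enzyme source is unchallenged culture supernatant of INVSc1 yeast expressing GLA variants, grown 66-84 h at 30° C.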
row,Molecule,Relative Activity of GLA Variants After No Challenge (NC)
1,B1,+ (+ = 0.5 to 1.5 relative activity over Rd3BB (SEQ ID NO: 13))
2,B2,+ (+ = 0.5 to 1.5 relative activity over Rd3BB (SEQ ID NO: 13))
3,B3,+ (+ = 0.5 to 1.5 relative activity over Rd3BB (SEQ ID NO: 13))
4,B4,+ (+ = 0.5 to 1.5 relative activity over Rd3BB (SEQ ID NO: 13))
5,B5,− (− = <0.5 relative activity to Rd3BB (SEQ ID NO: 13))
6,B6,− (− = <0.5 relative activity to Rd3BB (SEQ ID NO: 13))
7,B7,− (− = <0.5 relative activity to Rd3BB (SEQ ID NO: 13))
8,B8,+ (+ = 0.5 to 1.5 relative activity over Rd3BB (SEQ ID NO: 13))
9,B9,+ (+ = 0.5 to 1.5 relative activity over Rd3BB (SEQ ID NO: 13))
10,B10,+ (+ = 0.5 to 1.5 relative activity over Rd3BB (SEQ ID NO: 13))
11,B11,+ (+ = 0.5 to 1.5 relative activity over Rd3BB (SEQ ID NO: 13))
12,B12,+ (+ = 0.5 to 1.5 relative activity over Rd3BB (SEQ ID NO: 13))
13,B13,+ (+ = 0.5 to 1.5 relative activity over Rd3BB (SEQ ID NO: 13))

# Assay: HTP-analysis of supernatants pretreated with acid (MUGal hydrolysis)
# Type: biochemical
# Conditions: challenge at pH 4.0; activity of the variant/activity of Rd3BB (SEQ ID NO: 13); yeast culture supernatant
# Outline: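 Fluorescence of MUGal hydrolysis (Ex. 355 nm, Em. 448 nm) is read after sodium carbonate quench. The enzyme source is INVSc1 yeast culture supernatant, first exposed to pH 3.3-4.3 McIlvaine buffer at 37° C. for 1-3 h, then reacted at pH 4.8 for 30-180 minutes.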
row,Molecule,Relative Activity of GLA Variants After Challenge at pH 4.0
1,B1,+ (+ = 0.5 to 1.5 relative activity over Rd3BB (SEQ ID NO: 13))
2,B2,+ (+ = 0.5 to 1.5 relative activity over Rd3BB (SEQ ID NO: 13))
3,B3,+ (+ = 0.5 to 1.5 relative activity over Rd3BB (SEQ ID NO: 13))
4,B4,+ (+ = 0.5 to 1.5 relative activity over Rd3BB (SEQ ID NO: 13))
5,B5,− (− = <0.5 relative activity to Rd3BB (SEQ ID NO: 13))
6,B6,+ (+ = 0.5 to 1.5 relative activity over Rd3BB (SEQ ID NO: 13))
7,B7,− (− = <0.5 relative activity to Rd3BB (SEQ ID NO: 13))
8,B8,++ (++ = >1.5 to 2.5 relative activity over Rd3BB (SEQ ID NO: 13))
9,B9,+ (+ = 0.5 to 1.5 relative activity over Rd3BB (SEQ ID NO: 13))
10,B10,+ (+ = 0.5 to 1.5 relative activity over Rd3BB (SEQ ID NO: 13))
11,B11,++ (++ = >1.5 to 2.5 relative activity over Rd3BB (SEQ ID NO: 13))
12,B12,+ (+ = 0.5 to 1.5 relative activity over Rd3BB (SEQ ID NO: 13))
13,B13,++ (++ = >1.5 to 2.5 relative activity over Rd3BB (SEQ ID NO: 13))
